Laboratory results from patent US20100081620A1.
Where two headings read alike, the source gives them in different places. Values belong to the substance of their own block, whether it stands above or below them.

How the values were obtained:
[1] = target: ADAM 10 on IMPE cells; experiment: cell-based or functional assay
[2] = target: MMP 3; experiment: enzyme inhibition, fluorescent peptide substrate
[3] = target: MMP 13; experiment: enzyme inhibition, fluorescent peptide substrate
[4] = target: Human ADAM10 protease containing the catalytic/disintegrin domains (human) (UniProt O14672); experiment: enzyme inhibition, fluorescent peptide substrate
[5] = target: human ADAM 9 catalytic/disintegrin domains (human) (UniProt Q13443); experiment: enzyme inhibition, fluorescent peptide substrate
[6] = target: MMP 2; experiment: enzyme inhibition, fluorescent peptide substrate
[7] = target: MMP 9; experiment: enzyme inhibition, fluorescent peptide substrate
[8] = target: MMP 1; experiment: enzyme inhibition, fluorescent peptide substrate
[9] = target: MMP 14; experiment: enzyme inhibition, fluorescent peptide substrate
[10] = target: TACE catalytic domain (human) (human) (UniProt P78536); experiment: enzyme inhibition, fluorescent peptide substrate
[11] = target: Human TACE protease containing the catalytic/disintegrin domains (human) (UniProt P78536); experiment: enzyme inhibition, fluorescent peptide substrate
[12] = target: ADAM 10 protein on Ramos cells, U937 cells and B cells; experiment: cell-based or functional assay
[13] = target: human ADAM 9 catalytic/disintegrin domains (human) (UniProt Q13443); experiment: enzyme inhibition, fluorescent peptide substrate; remark: listed apart in the source
[14] = target: mouse ADAM 10 catalytic domain (mouse) (UniProt O35598); experiment: enzyme inhibition ('unpublished observation')
[15] = target: T1, ADAM 8 catalytic domain (mouse) (mouse) (UniProt Q05910); experiment: enzyme inhibition, fluorescamine assay with Dnp peptide substrate
T1 sequence (looked up): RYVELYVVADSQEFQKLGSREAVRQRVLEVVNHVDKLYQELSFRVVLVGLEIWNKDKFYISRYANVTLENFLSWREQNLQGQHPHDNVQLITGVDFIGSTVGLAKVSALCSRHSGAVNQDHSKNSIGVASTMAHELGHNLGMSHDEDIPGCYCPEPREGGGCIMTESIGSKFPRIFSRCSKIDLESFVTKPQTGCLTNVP

[16] = target: Human TACE protease containing the catalytic/disintegrin domains (human) (UniProt P78536); experiment: cell-based or functional assay

Chain of Human TACE protease containing the catalytic/disintegrin domains (human) (P78536 215-671 limits assumed): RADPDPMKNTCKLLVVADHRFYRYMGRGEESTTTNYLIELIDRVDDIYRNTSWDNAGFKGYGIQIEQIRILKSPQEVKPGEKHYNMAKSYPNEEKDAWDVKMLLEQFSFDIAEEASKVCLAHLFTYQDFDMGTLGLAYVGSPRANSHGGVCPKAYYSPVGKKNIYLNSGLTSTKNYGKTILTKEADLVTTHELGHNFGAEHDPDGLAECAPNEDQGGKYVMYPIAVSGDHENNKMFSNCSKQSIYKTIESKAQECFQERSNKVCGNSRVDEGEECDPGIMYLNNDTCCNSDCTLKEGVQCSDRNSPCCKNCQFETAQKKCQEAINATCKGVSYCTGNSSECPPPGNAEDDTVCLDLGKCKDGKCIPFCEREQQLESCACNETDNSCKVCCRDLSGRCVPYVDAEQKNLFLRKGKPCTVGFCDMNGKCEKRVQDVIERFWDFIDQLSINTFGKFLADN
Chain of human ADAM 9 catalytic/disintegrin domains (human) (Q13443 206-697 limits assumed): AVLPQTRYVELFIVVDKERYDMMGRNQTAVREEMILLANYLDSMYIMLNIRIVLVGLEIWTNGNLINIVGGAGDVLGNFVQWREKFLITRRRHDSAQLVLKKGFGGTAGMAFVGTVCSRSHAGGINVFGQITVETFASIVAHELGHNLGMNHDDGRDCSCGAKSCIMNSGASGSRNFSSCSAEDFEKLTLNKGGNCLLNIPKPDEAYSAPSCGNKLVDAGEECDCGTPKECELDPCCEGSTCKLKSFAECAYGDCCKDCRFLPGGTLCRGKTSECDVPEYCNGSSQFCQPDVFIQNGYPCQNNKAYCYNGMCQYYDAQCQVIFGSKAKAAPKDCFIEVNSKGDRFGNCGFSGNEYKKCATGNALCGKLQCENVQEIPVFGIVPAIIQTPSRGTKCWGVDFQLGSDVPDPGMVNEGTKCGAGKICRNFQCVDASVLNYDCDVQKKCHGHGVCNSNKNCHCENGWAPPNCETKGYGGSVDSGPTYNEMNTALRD
Chain of Human ADAM10 protease containing the catalytic/disintegrin domains (human) (O14672 214-672 limits assumed): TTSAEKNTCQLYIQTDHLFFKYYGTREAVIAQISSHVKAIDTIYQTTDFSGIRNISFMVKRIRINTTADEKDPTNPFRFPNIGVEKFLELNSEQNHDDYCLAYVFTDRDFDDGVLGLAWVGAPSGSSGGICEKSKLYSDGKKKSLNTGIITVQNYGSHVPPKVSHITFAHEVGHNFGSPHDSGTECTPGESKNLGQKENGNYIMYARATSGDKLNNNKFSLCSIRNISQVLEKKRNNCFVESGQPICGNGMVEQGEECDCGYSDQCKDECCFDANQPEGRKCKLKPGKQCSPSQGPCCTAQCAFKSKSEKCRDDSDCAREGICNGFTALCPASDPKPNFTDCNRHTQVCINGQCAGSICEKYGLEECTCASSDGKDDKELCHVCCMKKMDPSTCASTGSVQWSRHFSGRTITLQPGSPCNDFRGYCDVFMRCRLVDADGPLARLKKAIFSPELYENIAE
Chain of MMP 1 (P03956 100-469): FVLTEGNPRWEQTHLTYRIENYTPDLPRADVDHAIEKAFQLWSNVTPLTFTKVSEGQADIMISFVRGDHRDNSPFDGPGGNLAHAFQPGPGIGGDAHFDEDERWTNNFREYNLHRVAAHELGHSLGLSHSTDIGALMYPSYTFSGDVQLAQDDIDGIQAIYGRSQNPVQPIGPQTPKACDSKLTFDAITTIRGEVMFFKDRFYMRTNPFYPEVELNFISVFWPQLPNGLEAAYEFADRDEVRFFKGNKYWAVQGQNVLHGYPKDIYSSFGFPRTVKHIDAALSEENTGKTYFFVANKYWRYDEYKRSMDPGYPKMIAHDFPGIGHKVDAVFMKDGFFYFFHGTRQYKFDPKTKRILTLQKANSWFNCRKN
Chain of MMP 9 (P14780 107-707): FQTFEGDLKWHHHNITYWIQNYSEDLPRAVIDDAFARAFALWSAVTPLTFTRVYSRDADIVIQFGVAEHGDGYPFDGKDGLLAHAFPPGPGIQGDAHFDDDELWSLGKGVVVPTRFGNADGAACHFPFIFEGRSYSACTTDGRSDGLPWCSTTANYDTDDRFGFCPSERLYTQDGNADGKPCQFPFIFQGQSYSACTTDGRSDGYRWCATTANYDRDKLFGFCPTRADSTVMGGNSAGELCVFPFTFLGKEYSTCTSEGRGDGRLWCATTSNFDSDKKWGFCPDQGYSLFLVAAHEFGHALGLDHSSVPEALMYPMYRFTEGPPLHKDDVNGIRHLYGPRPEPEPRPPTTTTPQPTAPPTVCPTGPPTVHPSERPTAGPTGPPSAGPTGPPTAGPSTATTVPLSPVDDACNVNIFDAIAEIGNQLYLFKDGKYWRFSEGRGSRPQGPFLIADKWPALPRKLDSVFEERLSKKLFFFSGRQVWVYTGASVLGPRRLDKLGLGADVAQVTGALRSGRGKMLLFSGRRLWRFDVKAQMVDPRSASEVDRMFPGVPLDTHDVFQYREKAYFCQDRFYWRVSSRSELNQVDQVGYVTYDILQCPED
Chain of MMP 2 (P08253 110-660): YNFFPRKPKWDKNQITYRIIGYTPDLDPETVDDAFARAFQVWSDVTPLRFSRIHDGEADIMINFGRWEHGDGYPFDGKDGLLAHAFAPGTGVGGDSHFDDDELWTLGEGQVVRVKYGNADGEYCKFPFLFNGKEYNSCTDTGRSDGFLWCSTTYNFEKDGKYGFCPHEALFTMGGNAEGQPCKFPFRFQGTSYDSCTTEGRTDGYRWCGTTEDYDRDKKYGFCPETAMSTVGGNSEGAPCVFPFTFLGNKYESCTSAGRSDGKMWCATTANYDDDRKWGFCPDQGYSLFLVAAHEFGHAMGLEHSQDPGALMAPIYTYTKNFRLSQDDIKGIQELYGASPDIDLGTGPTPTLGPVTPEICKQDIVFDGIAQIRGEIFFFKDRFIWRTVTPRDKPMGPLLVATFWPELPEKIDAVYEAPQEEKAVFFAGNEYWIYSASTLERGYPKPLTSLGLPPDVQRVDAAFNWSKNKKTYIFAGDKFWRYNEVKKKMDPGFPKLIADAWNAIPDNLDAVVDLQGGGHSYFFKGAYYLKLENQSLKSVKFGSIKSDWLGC
Chain of MMP 3 (P08254 100-477): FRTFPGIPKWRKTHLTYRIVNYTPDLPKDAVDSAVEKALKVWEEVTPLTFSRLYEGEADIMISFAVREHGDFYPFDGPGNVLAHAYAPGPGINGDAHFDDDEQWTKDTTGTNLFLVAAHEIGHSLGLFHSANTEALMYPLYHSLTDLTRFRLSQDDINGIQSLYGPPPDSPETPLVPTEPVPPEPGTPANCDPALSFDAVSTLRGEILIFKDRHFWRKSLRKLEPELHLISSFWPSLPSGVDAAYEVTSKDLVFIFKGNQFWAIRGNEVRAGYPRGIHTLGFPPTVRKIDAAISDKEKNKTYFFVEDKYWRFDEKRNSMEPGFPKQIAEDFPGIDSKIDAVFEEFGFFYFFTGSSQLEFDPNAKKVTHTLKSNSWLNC
Chain of TACE catalytic domain (human) (human) (P78536 215-477 limits assumed): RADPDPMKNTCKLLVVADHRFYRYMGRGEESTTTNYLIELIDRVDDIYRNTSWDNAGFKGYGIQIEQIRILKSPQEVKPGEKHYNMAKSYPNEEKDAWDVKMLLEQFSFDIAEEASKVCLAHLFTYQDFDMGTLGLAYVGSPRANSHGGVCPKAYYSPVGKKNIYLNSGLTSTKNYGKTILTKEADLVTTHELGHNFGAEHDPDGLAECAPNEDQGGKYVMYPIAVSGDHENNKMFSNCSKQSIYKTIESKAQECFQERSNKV
Chain of mouse ADAM 10 catalytic domain (mouse) (O35598 215-457 limits assumed): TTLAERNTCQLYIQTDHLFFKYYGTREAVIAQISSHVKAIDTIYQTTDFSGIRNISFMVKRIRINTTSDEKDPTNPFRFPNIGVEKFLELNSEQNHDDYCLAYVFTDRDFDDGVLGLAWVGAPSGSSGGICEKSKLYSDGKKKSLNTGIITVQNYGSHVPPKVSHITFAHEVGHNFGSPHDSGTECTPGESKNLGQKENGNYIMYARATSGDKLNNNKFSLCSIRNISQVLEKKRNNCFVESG

inhibition of calcium ionophore induced betacellulin shedding (BTC ELISA) [1]: 67 % (at 15 µM)
inhibition of calcium ionophore induced betacellulin shedding (BTC ELISA) (% (at 1.5 µM)) [1]: 25
inhibition of constitutive betacellulin shedding (BTC ELISA) [1]: 90 % (at 15 µM)
inhibition of constitutive betacellulin shedding (BTC ELISA) (% (at 1.5 µM)) [1]: 75
Substance: ADAM10 prodomain (betacellulin shedding assay, construct not specified)

Ki [2]: > 2000 nM
Ki [3]: > 2000 nM
Ki [4]: 36 nM
Ki [5]: > 1000 nM
Ki [6]: > 2000 nM
Ki [7]: > 2000 nM
Ki [8]: > 2000 nM
Ki [9]: > 2000 nM
Ki [10]: > 3000 nM
Ki [11]: > 3000 nM
inhibition of CD23 shedding in Ramos cells (soluble CD23 ELISA) [12]: 30%
inhibition of CD23 shedding in U937 cells (soluble CD23 ELISA) [12]: 30%
Ki [13]: 1000 nM
Ki [14]: 17 nM
Ki [15]: > 10000 nM
Substance: C173S ProADAM 10 23-213 (C-terminal His tag) (from UniProt O35598 23-213)

prodomain inhibition of enzyme activity (percent) [16]: 0%
Substance: Pro ADAM 17 (mouse) (from UniProt Q9Z0F8 18-214)
